What all share (experiment): Lineweaver-Burk plot of the Michaelis-Menten equation
Substrate in data set [1]: NC(=O)C[C@H](N)C(=O)O
The class given is biochemical, Thermococcus litoralis. To be noted: 90 °C, pH 9.0, free enzyme. An excerpt:
Lineweaver-Burk plot of the Michaelis-Menten equation on asparaginase Tli10209

Substrate in data set [2]: NC(=O)C[C@H](N)C(=O)O
The class given is biochemical, Thermus thermophilus. To be noted: 80 °C, pH 9.0, free enzyme. The text has this:
Lineweaver-Burk plot of the Michaelis-Menten equation on asparaginase Ttha0067

Substrate in data set [3]: N=C(N)NCCC[C@H](N)C(=O)O
Format: biochemical, Thermococcus litoralis. To be noted: 70 °C, pH 10.0, free enzyme. An excerpt: Lineweaver-Burk plot of the Michaelis-Menten equation on arginase Tli08105

B1: asparaginase Tli10209 (Thermococcus litoralis DSM 5473) (protein)
chain: MSEKRKLERRGAEDMKRILIIGTGGTIASAKTDAGFKSVLTIDEILEKADIKLKNGYEIDTRNILNIDSTLIQPEDWERIAKEVYKALEDYDGIVITHGTDTLAYTASMLTFMIRGINKPVVLTGSMRPVTEEESDAPRNLKAAIRFAMEDVSGIFVAFMDKIMLGCRTSKIRALGLNAFMSINYPDVAYVKGEEVIYNLPQKRFKPKGEPVLDTKYEPRVVFIRLTPGLDGNAIDALVKAGYRGIVLEGYGAGGIPYRKRDILSKIREITPQIPVVMTTQALYDGVDLTKYEVGRKALEAGIIPAKDMTKETTITKLMWALGHTKNVEEVKEIMHTNYADEIEG
notes: recombinant, purified by Ni2+-NTA; free enzyme; expression details in supplement
Turning to B1, in data set [1], the Km came to 4.340 mM, the kcat was 2080 s⁻¹ and the specificity constant (kcat/Km) was found to be 479000 M⁻¹ s⁻¹.

B2: asparaginase Ttha0067 (Thermus thermophilus HB8) (protein)
chain: MSAEVLVYRGSLVENRHRVSLALWGPEGLVAYAGDPGRVAYLRSSAKPFQALALYLTGAVERFGLTEEEVALATASHDGTPRHVEVAARFLGKLGLGPEHLVCGVHPPFSREARAALEAQGLAPTPLHHNCSGKHAGMLAAALALGAPAEGYHLPDHPVQRLNLATLEALSGARPGLATDGCSVPTFALSLARAARAFFLLADPGRAPEAYRTPLLRVREAMRRHPDLVAGPGSVDTLLMERLPVVAKRGADGYYGLALLEGPRGPLGVALKVEDGATLAREVAVVALLRALGLDPGKTPWDRPPVRNHRGLEVGHLEARLGLVWV
notes: as for B1
Regarding B2, in data set [2], the Michaelis constant (Km) stood at 6.178 mM, the kcat was 1210 s⁻¹ and the specificity constant (kcat/Km) was 196000 M⁻¹ s⁻¹.

B3: arginase Tli08105 (Thermococcus litoralis DSM 5473) (protein)
chain: MLFGIPSSKKPNLYILGIPWDNSSSFRRGCAEGPRAIREATSEELYNSFNEELVNLTEHWSYKDLGDIKADTFEELVEKVNAIVRKHYNGELFLFLGGDHSITYATFKAIKEASNEDFGLIYFDAHPDMYPEYDGDEYSHACTVRRLIEEGWVKGENVVQIGVRAPTREQVEFAKEHGVKIISASGIYRSPVIQVPFEKAYLSFDMDVLDPAFAPGVGNPEPGGLSTRELVEVIKSLNVEIIAFDIVELNPKYDYKGISAFAAAKIIREVLGKAAKTK
notes: as for B1
For the protein B3, in data set [3], the Km came out at 1.059 mM, the Vmax came out at 961 µM/min, the kcat was found to be 1.25 s⁻¹ and the kcat/Km was determined as 1350 M⁻¹ s⁻¹.

The term Km denotes the substrate concentration at which the rate is half of its maximum. As a reminder, the kcat is the number of substrate molecules converted per active site and unit of time at saturation. A word on the kcat/Km: it is the turnover number divided by the Michaelis constant. For orientation: Vmax means the top rate of the reaction or transport when substrate is in excess.

The record behind these values is article PMC10848425, “Selective enhanced cytotoxicity of amino acid deprivation for cancer therapy using thermozyme functionalized nanocatalyst” (Journal of Nanobiotechnology, 2024).
